Read-outs that look alike come from different tables or passages of the source.
Legend:
Experiment in all cases: split reporter
[1] = biological target: T1, CLuc-EXO70H1 (A. thaliana, UniProt Q8VY27 1-636)
T1 sequence: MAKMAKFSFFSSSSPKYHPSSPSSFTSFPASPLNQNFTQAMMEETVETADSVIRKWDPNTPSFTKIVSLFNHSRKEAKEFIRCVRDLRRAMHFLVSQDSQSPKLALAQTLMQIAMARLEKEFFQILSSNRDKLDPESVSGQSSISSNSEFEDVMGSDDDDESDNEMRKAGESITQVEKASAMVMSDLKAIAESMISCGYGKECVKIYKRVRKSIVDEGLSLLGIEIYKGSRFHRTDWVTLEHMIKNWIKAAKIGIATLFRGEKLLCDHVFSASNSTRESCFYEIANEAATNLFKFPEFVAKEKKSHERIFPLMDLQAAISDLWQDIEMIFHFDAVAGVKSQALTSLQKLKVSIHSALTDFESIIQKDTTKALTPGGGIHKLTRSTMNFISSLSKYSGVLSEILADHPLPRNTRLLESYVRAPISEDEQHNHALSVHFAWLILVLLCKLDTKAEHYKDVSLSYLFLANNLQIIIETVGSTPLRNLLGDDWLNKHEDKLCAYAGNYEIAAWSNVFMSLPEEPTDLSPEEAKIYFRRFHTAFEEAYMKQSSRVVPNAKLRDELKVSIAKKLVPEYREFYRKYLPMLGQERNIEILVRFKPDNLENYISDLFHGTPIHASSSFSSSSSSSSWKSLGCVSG

[2] = biological target: T2, CLuc-EXO70H2 (A. thaliana, UniProt O80625 1-637)
T2 sequence: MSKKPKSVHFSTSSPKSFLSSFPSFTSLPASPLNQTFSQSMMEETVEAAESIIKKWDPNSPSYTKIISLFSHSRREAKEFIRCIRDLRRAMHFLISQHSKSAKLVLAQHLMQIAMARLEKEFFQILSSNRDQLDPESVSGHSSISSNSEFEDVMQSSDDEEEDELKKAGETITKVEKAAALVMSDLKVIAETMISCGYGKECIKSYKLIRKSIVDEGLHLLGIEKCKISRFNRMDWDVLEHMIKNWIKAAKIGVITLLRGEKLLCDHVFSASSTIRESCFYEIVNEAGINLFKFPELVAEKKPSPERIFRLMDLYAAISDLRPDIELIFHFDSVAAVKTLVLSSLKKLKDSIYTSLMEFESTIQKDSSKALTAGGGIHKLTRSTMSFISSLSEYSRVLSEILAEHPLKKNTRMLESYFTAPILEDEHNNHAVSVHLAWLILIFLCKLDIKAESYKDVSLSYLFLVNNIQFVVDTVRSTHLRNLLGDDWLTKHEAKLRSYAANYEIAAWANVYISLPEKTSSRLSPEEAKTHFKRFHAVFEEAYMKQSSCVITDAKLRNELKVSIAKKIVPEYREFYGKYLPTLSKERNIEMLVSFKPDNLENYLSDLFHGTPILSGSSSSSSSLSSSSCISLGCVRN

[3] = biological target: T3, CLuc-EXO70H4 (A. thaliana, UniProt Q9SF51 1-628)
T3 sequence: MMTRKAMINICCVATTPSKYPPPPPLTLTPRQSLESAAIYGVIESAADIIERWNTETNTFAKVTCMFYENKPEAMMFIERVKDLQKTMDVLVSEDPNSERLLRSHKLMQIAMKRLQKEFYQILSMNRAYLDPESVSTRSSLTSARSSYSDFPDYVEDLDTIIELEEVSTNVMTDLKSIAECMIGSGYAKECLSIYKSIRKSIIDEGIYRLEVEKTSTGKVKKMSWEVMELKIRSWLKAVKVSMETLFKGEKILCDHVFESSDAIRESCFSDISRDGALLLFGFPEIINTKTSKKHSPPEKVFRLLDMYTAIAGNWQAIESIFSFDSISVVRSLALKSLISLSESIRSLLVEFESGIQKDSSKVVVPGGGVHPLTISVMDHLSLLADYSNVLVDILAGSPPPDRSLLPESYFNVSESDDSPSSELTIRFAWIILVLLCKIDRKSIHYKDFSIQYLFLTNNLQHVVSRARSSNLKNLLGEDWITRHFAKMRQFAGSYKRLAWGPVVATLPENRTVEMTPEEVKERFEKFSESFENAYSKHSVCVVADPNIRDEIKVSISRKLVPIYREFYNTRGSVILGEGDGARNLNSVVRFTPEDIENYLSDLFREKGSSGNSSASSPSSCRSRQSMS

[4] = biological target: T1, CLuc-EXO70H1; remark: listed apart in the source
[5] = biological target: CLuc-EXO70H7 (A. thaliana); settings: scale: relative to the calmodulin positive control
[6] = biological target: T3, CLuc-EXO70H4; remark: listed apart in the source
[7] = biological target: T4, CLuc-EXO70B2 (A. thaliana, UniProt Q9LMJ4 1-599)
T4 sequence: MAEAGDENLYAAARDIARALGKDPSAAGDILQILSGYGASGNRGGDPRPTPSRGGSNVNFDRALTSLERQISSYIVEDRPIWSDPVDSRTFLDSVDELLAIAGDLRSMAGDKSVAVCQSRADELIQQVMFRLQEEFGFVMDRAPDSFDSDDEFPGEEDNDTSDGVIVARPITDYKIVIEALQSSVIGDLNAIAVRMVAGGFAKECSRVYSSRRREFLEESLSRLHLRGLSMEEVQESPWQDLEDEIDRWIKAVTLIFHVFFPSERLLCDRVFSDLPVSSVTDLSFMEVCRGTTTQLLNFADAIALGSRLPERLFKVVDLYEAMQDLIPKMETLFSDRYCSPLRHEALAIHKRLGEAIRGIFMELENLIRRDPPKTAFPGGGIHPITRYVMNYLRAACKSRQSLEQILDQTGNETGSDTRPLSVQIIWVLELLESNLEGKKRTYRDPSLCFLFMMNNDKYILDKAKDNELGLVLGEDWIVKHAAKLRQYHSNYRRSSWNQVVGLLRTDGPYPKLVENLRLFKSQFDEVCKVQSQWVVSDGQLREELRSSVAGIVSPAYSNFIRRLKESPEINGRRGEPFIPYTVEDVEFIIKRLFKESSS

B1: MLO12-NLuc (natural protein)
chain: MAIKERSLEETPTWAVAVVCFVLLFISIMIEYFLHFIGHWFKKKHKKALSEALEKVKAELMLLGFISLLLVVLQTPVSEICIPRNIAATWHPCSNHQEIAKYGKDYIDDGRKILEDFDSNDFYSPRRNLATKGYDKCAEKGKVALVSAYGIHQLHIFIFVLAVFHVLYCIITYALGKTKMKKWKSWERETKTIEYQYANDPERFRFARDTSFGRRHLNIWSKSTFTLWITCFFRQFFGSVTKVDYLTLRHGFIMAHLPAGSAARFDFQKYIERSLEQDFTVVVGISPLIWCIAVLFILTNTHGWDSYLWLPFLPLIVILIVGAKLQMIISKLGLRIQEKGDVVKGAPVVEPGDDLFWFGRPRFILFLIHLVLFTNAFQLAFFVWSTYEFTLKNCFHHKTEDIAIRITMGVLIQVLCSYITLPLYALVTQMGTSMRPTIFNDRVANALKKWHHTAKKQTKHGHSGSNTPHSSRPTTPTHGMSPVHLLHNYNNRSLDQQTSFTASPSPPRFSDYSGQGHGHQHFFDPESQNHSYQREITDSEFSNSHHPQVDMASPVREEKEIVEHVKVDLSEFTFKK
relative luminescence [1]: ~0.37 relative to the calmodulin positive control

B2: MLO6-NLuc (natural protein)
chain: MADQVKEKTLEETSTWAVAVVCFVLLLISIVIEKLIHKIGSWFKKKNKKALYEALEKVKAELMLMGFISLLLTIGQGYISNICIPKNIAASMHPCSASEEARKYGKKDVPKEDEEENLRRKLLQLVDSLIPRRSLATKGYDKCAEKGKVAFVSAYGMHQLHIFIFVLAVCHVIYCIVTYALGKTKMRRWKKWEEETKTIEYQYSHDPERFRFARDTSFGRRHLSFWSKSTITLWIVCFFRQFFRSVTKVDYLTLRHGFIMAHLAPGSDARFDFRKYIQRSLEEDFKTIVEINPVIWFIAVLFLLTNTNGLNSYLWLPFIPFIVILIVGTKLQVIITKLGLRIQEKGDVVKGTPLVQPGDHFFWFGRPRFILFLIHLVLFTNAFQLAFFVWSTYEFGLKNCFHESRVDVIIRISIGLLVQILCSYVTLPLYALVTQMGSKMKPTVFNERVATALKSWHHTAKKNIKHGRTSESTTPFSSRPTTPTHGSSPIHLLRNAPHKRSRSVDESFANSFSPRNSDFDSWDPESQHETAETSNSNHRSRFGEEESEKKFVSSSVELPPGPGQIRTQHEISTISLRDFSFKR
relative luminescence [2]: > 0.24 relative to the calmodulin positive control
relative luminescence [3]: > 0.24 relative to the calmodulin positive control
relative luminescence [4]: > 0.24 relative to the calmodulin positive control
relative luminescence [5]: > 0.24
relative luminescence [6]: ~0.67 relative to the calmodulin positive control

B3: MLO2-NLuc (natural protein)
chain: MADQVKERTLEETSTWAVAVVCFVLLFISIVLEHSIHKIGTWFKKKHKQALFEALEKVKAELMLLGFISLLLTIGQTPISNICISQKVASTMHPCSAAEEAKKYGKKDAGKKDDGDGDKPGRRLLLELAESYIHRRSLATKGYDKCAEKGKVAFVSAYGIHQLHIFIFVLAVVHVVYCIVTYAFGKIKMRTWKSWEEETKTIEYQYSNDPERFRFARDTSFGRRHLNFWSKTRVTLWIVCFFRQFFGSVTKVDYLALRHGFIMAHFAPGNESRFDFRKYIQRSLEKDFKTVVEISPVIWFVAVLFLLTNSYGLRSYLWLPFIPLVVILIVGTKLEVIITKLGLRIQEKGDVVRGAPVVQPGDDLFWFGKPRFILFLIHLVLFTNAFQLAFFAWSTYEFNLNNCFHESTADVVIRLVVGAVVQILCSYVTLPLYALVTQMGSKMKPTVFNDRVATALKKWHHTAKNETKHGRHSGSNTPFSSRPTTPTHGSSPIHLLHNFNNRSVENYPSSPSPRYSGHGHHEHQFWDPESQHQEAETSTHHSLAHESSEPVLASVELPPIRTSKSLRDFSFKK
relative luminescence [6]: ~0.4 relative to the calmodulin positive control
relative luminescence [1]: ~0.39 relative to the calmodulin positive control
relative luminescence [7]: ~0.56 relative to the calmodulin positive control
